Laboratory results published in publication PMC9692514, “Identification of a Novel p53 Modulator Endowed with Antitumoural and Antibacterial Activity through a Scaffold Repurposing Approach” (Pharmaceuticals, 2022).

Biological target: T1, recombinant human His-tagged p53 protein (residues 1–312) (human, UniProt P04637 1-312)
T1 construct: p53, human, residues 1-312; source: final dialysis with 0.2 mM ZnCl2
Experiment: NMR antagonist-induced dissociation assay (AIDA), 1D proton spectra; Trp NHε side-chain signals of the MDM2–p53 complex; 0.1 mM proteins, 25 °C, 20 mM Tris-HCl, 150 mM KCl, pH 7.4, 5 mM β-mercaptoethanol, 0.02% NaN3; also after RM37 (0.2 mM)
Settings: both partners purified

T1 sequence (P04637 1-312): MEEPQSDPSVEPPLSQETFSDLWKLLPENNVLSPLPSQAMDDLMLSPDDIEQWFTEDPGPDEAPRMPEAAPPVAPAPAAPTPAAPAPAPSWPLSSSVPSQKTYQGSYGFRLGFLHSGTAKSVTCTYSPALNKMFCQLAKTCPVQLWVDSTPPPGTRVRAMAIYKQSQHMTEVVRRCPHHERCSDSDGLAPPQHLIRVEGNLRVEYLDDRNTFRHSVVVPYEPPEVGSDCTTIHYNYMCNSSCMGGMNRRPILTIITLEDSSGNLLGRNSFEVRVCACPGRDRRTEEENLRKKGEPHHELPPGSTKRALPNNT

- binding result: binds
B1: recombinant human His-tagged N-terminal region of MDM2 (residues 1–118) (domain or fragment, UniProt Q00987 1-118, looked up)
chain: MCNTNMSVPTDGAVTTSQIPASEQETLVRPKPLLLKLLKSVGAQKDTYTMKEVLFYLGQYIMTKRLYDEKQQHIVYCSNDLLGDLFGVPSFSVKEHRKIYTMIYRNLVVVNQQESSDS
notes: MDM2 (HDM2), human, N-terminal region, residues 1-118; Cloned in a derivative of the vector pET-46Ek/LIC (Novagen); that vector probably adds the His tag at the N-terminus (surmised); No cleavage of the tag is told; also called HDM2
